Source: US20190350938A1 (BROAD INSTITUTE, published 2019)

T1: P2D SLC16A11^REF-V5 (human, UniProt Q8NCK7 1-447)
T1 construct: bait of the proteomics study; also called P2D WT SLC16A11; WT SLC16A11
T1 sequence: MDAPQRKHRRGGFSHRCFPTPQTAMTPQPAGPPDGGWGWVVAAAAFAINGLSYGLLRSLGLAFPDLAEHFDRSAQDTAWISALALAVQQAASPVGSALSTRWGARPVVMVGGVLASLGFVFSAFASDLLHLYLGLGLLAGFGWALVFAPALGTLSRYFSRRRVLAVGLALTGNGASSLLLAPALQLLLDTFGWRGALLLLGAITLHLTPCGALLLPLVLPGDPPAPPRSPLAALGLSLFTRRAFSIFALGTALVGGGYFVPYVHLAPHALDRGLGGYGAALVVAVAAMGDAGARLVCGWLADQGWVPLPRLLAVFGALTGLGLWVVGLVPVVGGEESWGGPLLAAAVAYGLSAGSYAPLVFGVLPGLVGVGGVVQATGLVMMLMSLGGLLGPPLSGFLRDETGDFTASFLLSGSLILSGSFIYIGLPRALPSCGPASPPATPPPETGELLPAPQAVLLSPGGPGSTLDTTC

B1: Basigin (other, human, UniProt P35613-2 22-269, looked up)
chain: AAGTVFTTVEDLGSKILLTCSLNDSATEVTGHRWLKGGVVLKEDALPGQKTEFKVDSDDQWGEYSCVFLPEPMGTANIQLHGPPRVKAVKSSEHINEGETAMLVCKSESVPPVTDWAWYKITDSEDKALMNGSESRFFVSSSQGRSELHIENLNMEADPGQYRCNGTSSKGSDQAIITLRVRSHLAALWPFLGIVAEVLVLVTIIFIYEKRRKPEDVLDDDDAGSAPLKSSGQHQNDKGKNVRQRNSS
modifications: glycosylated (runs as multiple bands)
notes: Endogenous protein co-precipitated from HEK293T lysate; also called BSG; endogenous BSG
B2: SLC16A11^T2D-V5 (other, not shown: small tags and cut ends)
chain: MPAPQRKHRRGGFSHRCFPTPQTAMTPQPAGPPDGGWGWVVAAAAFAINGLSYGLLRSLGLAFPDLAEHFDRSAQDTAWISALALAVQQAASPVGSALSTRWGARPVVMVGGILASLGFVFSAFASGLLHLYLGLGLLAGFGWALVFAPALGTLSRYFSRRRVLAVGLALTGNGASSLLLAPALQLLLDTFGWRGALLLLGAITLHLTPCGALLLPLVLPGDPPAPPRSPLAALGLSLFTRRAFSIFALGTALVGGGYFVPYVHLAPHALDRGLGGYGAALVVAVAAMGDAGARLVCGWLADQGWVPLPRLLAVFGALTGLGLWVVGLVPVVGGEESWGSPLLAAAVAYGLSAGSYAPLVFGVLPGLVGVGGVVQATGLVMMLMSLGGLLGPPLSGFLRDETGDFTASFLLSGSLILSGSFIYIGLPRALPSCGPASPPATPTPETGELLPAPQAVLLSPGGPGSTLDTTCLPTFLYKVVGKPIPNPLLGLDST
B3: Embigin (protein, human, UniProt Q6PCB8 33-327, looked up)
chain: DGSAPDSPFTSPPLREEIMANNFSLESHNISLTEHSSMPVEKNITLERPSNVNLTCQFTTSGDLNAVNVTWKKDGEQLENNYLVSATGSTLYTQYRFTIINSKQMGSYSCFFREEKEQRGTFNFKVPELHGKNKPLISYVGDSTVLTCKCQNCFPLNWTWYSSNGSVKVPVGVQMNKYVINGTYANETKLKITQLLEEDGESYWCRALFQLGESEEHIELVVLSYLVPLKPFLVIVAEVILLVATILLCEKYTQKKKKHSDEGKEFEQIEQLKSDDSNGIENNVPRHRKNESLGQ

Experiments:
P2D SLC16A11^REF-V5 = molecular target: T1, P2D SLC16A11^REF-V5; test: anti-V5 IP of P2D SLC16A11REF-V5 from HEK293T lysate, iTRAQ quantitative MS; enrichment vs empty vector control IP
Basigin = molecular target: B1; test: cell-based or functional assay

| BA log fold change (log fold change) (P2D SLC16A11^REF-V5) | B.A. logFC (P2D SLC16A11^REF-V5) | Molecule | further results |
| --- | --- | --- | --- |
| 1.11 | – | PHGDH (from UniProt O43175 2-533) (enzyme) | – |
| 1.21 | 1.21 logFC | UBAC2 (from UniProt Q8NBM4 36-344) | – |
| 1.26 | 1.26 logFC | BAG2 (from UniProt O95816 2-211) | – |
| 1.1 | – | TECR (from UniProt Q9NZ01 1-308) (enzyme) | – |
| 1.02 | – | TUBA4A (from UniProt P68366 1-448) | – |
| 1.04 | – | BRAT1 (from UniProt Q6PJG6 1-821) | – |
| 1.14 | – | VDAC2 (from UniProt P45880 1-309) | – |
| 1.09 | – | MAGED1 (from UniProt Q9Y5V3 1-834) | – |
| 1.65 | 1.65 logFC | DDOST (from UniProt P39656 43-456) | – |
| 1.2 | 1.2 logFC | Proteasome subunit alpha type-1 (from UniProt P25786 1-269) | – |
| 1.16 | – | AGPAT6 (from UniProt Q86UL3 38-456) (enzyme) | – |
| 1.05 | – | TUBA1B (from UniProt P68363 1-451) | – |
| 1.08 | – | SCFD1 (from UniProt Q8WVM8 2-642) | – |
| 1.33 | 1.33 logFC | SURF4 (from UniProt O15260 2-269) | – |
| 1.16 | – | KIAA0368 (from UniProt J3KN16 1-2017) | – |
| 1.18 | – | ATP1B3 (from UniProt P54709 1-279) | – |
| 1.2 | – | SLC25A22 (from UniProt Q9H936 1-323) | – |
| 1.1 | – | AUP1 (from UniProt Q9Y679 1-410) | – |
| 1.08 | – | BAG6 (from UniProt P46379 1-1162) | – |
| 1.16 | – | PSMC3 (from UniProt P17980 1-439) | – |
| 1.23 | 1.23 logFC | FAS-associated factor 2 (from UniProt Q96CS3 2-445) | – |
| 1.03 | – | HEATR2 (from UniProt Q86Y56 2-855) | – |
| 1.59 | 1.59 logFC | SEC61A2 (from UniProt Q9H9S3 1-476) | – |
| 1.65 | 1.65 logFC | SLC25A3 (from UniProt Q00325 50-361) | – |
| 1.18 | – | PSMD12 (from UniProt O00232 2-456) | – |
| 1.25 | 1.25 logFC | Transmembrane protein 33 (from UniProt P57088 2-247) | – |

| BA log fold change (log fold change) (P2D SLC16A11^REF-V5) | B.A. logFC (P2D SLC16A11^REF-V5) | Molecule | further results |
| --- | --- | --- | --- |
| 1.38 | 1.38 logFC | CANX (from UniProt P27824 56-627) | – |
| 1.01 | – | GCN1L1 (from UniProt Q92616 2-2671) | – |
| 1.26 | 1.26 logFC | SACM1L (from UniProt Q9NTJ5 1-587) (enzyme) | – |
| 1.05 | – | DNAJC7 (from UniProt Q99615 2-494) | – |
| 1.11 | – | ADCK4 (from UniProt Q96D53 1-544) | – |
| 0.98 | – | PSMD2 (from UniProt Q13200 1-908) | – |
| 1.65 | 1.65 logFC | EMC3 (from UniProt Q9P0I2 2-261) | – |
| 1.42 | 1.42 logFC | E3 ubiquitin-protein ligase RNF5 (from UniProt Q99942 2-180) (enzyme) | – |
| 1.02 | – | PSMD11 (from UniProt O00231 1-423) | – |
| 1.22 | – | DNAJC3 (from UniProt Q13217 32-504) | – |
| 1.09 | – | PSMA3 (from UniProt P25788 2-255) | – |
| 1.22 | 1.22 logFC | TIMM23B (from UniProt Q5SRD1 1-188) | – |
| 1.69 | 1.69 logFC | 7-dehydrocholesterol reductase (from UniProt Q9UBM7 1-475) (enzyme) | – |
| 1.27 | – | STT3A (from UniProt P46977 1-705) (enzyme) | – |
| 1.08 | – | DNAJB4 (from UniProt Q9UDY4 2-337) | – |
| 1.84 | 1.84 logFC | SEC61A1 (from UniProt B4DR61 1-482) | – |
| 1.04 | – | TUBA1C (from UniProt F5H5D3 1-519) | – |
| 1.08 | – | QIL1 (from UniProt Q5XKP0 1-118) | – |
| 1.31 | 1.31 logFC | PSMD14 (from UniProt O00487 1-310) | – |
| 1.14 | – | XPO5 (from UniProt Q9HAV4 2-1204) | – |
| 1.26 | 1.26 logFC | HSD17B12 (from UniProt Q53GQ0 1-312) (enzyme) | – |
| 1.16 | – | LPCAT1 (from UniProt Q8NF37 1-534) (enzyme) | – |
| 1.18 | – | PPP6R3 (from UniProt Q5H9R7 1-879) | – |
| – | – | B1 | BA log fold change (P2D SLC16A11^REF-V5): 1.43 log fold change |
| – | – | B2 | pyruvate influx and efflux rates (pyronic FRET assay, 293T cells) (Basigin): ~0.5 fold of WT SLC16A11 |
| 1.55 | 1.55 logFC | B3 | – |
